# Data: patent US11672867B2, “Protein-templated self-assembly of a covalent polymer network for intracellular trafficking and traceless release” (University of Massachusetts, priority 2017, dated 2023)
# Assays:
# [1] = Dynamic light scattering particle size; format: physicochemical; settings: 1 mg/mL, phosphate buffer pH 7.4
# Description: (§1) Dynamic light scattering (DLS) and zeta potential measurements were performed using a Malvern Nanozetasizer-ZS. All samples were diluted with phosphate buffer pH 7.4 to adjust final concentration to 1 mg/mL.
# [2] = Release kinetics of proteins from nanoassemblies (DTT, SDS-PAGE); settings: reducing conditions (DTT)
# Description: 30 μL of different samples containing NA-Empty^ED, NA-Empty^PEG, NA-Lys^ED, NA-Lys^PEG, NA-RNaseA^ED, NA-RNaseA^PEG, NA-CytC^ED and NA-CytC^PEG were mixed with 10 μL of loading buffer (DTT free) and 25 μL of each sample was loaded on acrylamide gel. For release experiment, identical protein-polymer conjugate samples were treated with 10 mM DTT and incubated at 37° C. for 4 h before subjecting to acrylamide gel electrophoresis. To calculate the amount of released protein from each sample, standard curves were generated from the known concentrations of pure protein samples loaded into the gel lanes. The gel image analysis and quantification were performed with Bio-Rad Image Lab™ software.
# To monitor the release kinetics of proteins (lysozyme, RNase A and cytochrome C), 30 μL of NA-Lys^ED, NA-Lys^PEG, NA-RNaseA^ED, NA-RNaseA^PEG, NA-CytC^ED and NA-CytC^PEG samples were incubated at 37° C. with requisite amounts of 10 mM DTT for different time intervals. After each incubation time, samples were collected and immediately frozen at −20° C. Finally, all samples were subjected to SDS-PAGE analysis to quantify the amount of released proteins. Encapsulation and release studies with variations in DTT concentrations and crosslinker concentrations were carried out using similar experimental protocols.
# HeLa cells = experiment: Cell viability with alamarBlue assay; format: cell-based, Human; settings: 72 h
# Description: Human cervical carcinoma (HeLa) cells were cultured in T75 cell culture flask containing Dulbecco's Modified Eagle Medium/Nutrient Mixture F-12 (DMEM/F12) in a humidified incubator with 5% CO2 at 37° C. Culture media was supplemented with 10% fetal bovine serum (FBS), 1% L-glutamine and 1% antibiotic-antimycotic (100 units/mL of penicillin, 100 μg/mL of streptomycin, and 0.25 μg/mL of Amphotericin B).
# HeLa cells were seeded into 96-well tissue culture plates at a density of 5000 cells/well/100 μL sample and incubated at 37° C. After 24 h, culture media was replaced and cells were treated with different concentrations of protein-polymer conjugates and control protein samples (0.1 mg/mL to 2 mg/mL protein concentration) in 100 μL media. All samples were incubated for 6 h at 37° C., then the media was replaced and incubated for another 66 h at 37° C. Afterwards media was replaced, washed with PBS buffer for three times and each well was treated with 100 μL 10% alamarBlue in media with serum. Finally, samples were incubated for 1 h and subjected to fluorescence measurement with SpectraMax® M5 at 560 nm excitation/590 nm emission wavelength in a black 96-well flat bottomed plate. Cellular viability of the small molecule byproducts were assessed using a similar protocol.
# [3] = Crosslinking density from released 4-nitrophenol (UV-Vis, 400 nm); format: physicochemical; settings: adjusted for ~1% hydrolysis of control polymer
# Description: The conjugation process and cross-linking density for the protein-polymer conjugates can be evaluated by UV-Vis spectroscopy. The amount of released 4-nitrophenol was monitored at its λmax 400 nm (measured molar extinction co-efficient≈12.14*10^3 L M^−1 cm^−1 at 400 nm). For each absorbance measurement, samples were diluted to twenty times, for e.g. 50 μL of sample was diluted 1 mL with distilled water. Cross-linking density was calculated by assuming that formation of a single chain crosslinking bond would require cleavage of two NPC units and produce two 4-nitrophenol molecules.
# Ratio of NPC:PEG in the polymer, P1=50:50
# Molecular weight of repeating NPC-unit=387 g/mol
# Amount of polymer used=0.1 mg/mL for each absorbance measurement
# From Beer-lamber's law: A=ε.c.1 and path-length=1 cm
# Thus, moles of 4-nitro phenol in 1 mL solution=3.04*10^−8
# This represents is 23.5 mol % of total NPC unit. As it is assumed that two 4-nitro phenol are released per crosslinking bond formation and NPC unit is 50 mol % of total polymer. Therefore, crosslinking density=23.5/2*0.5=5.9%
# Hydrolysis from control polymer sample contributes ˜1% towards cross-linking density and adjusted for all calculations. Crosslinking densities for all other conjugates were calculated based on the above method and summarized below: […]
# [4] = Encapsulation efficacy and loading capacity (Pierce 660 nm Protein Assay of filtrate); format: physicochemical; settings: for Amount of protein encapsulated, μg (Initial dose = 1 mg): 10 mg P1, 1 mg protein, back-calculated from filtrate
# Description: All nanoassemblies were evaluated for amount of protein encapsulation after conjugation and cross-linking process. Protein concentration in each sample was measured from the filtrate after crosslinking reaction and the amount of protein was back-calculated in the conjugate. An absorbance based assay (with Pierce™ 660 nm Protein Assay Reagent) was utilized to quantify the protein amount. The encapsulation efficiency (EE) and loading capacity (LC) were calculated based on the following formulas: […]
# [5] = Calculation of number of proteins per particle; format: physicochemical; settings: from DLS diameters, sphere packing efficiency ~74%
# Excerpt: Calculation of Number of Proteins Per Particle: Example for NA-Lys^ED: Diameter of nanoassembly, D=9.7 nm, radius, R=4.85 nm Volume of each particle, VPPC=(4/3)πR^3=(4/3) π(4.85)^3 nm^3=477.6×10^−21 cm^3 Again, for lysozyme, diameter of protein, d=3.6 nm, radius, r=1.8 nm Volume of each protein, VLy=(4/3)πr^3=(4/3) π(1.8)^3 nm^3=24.4×10^−21 cm^3 Assuming that maximum sphere packing efficiency to be ˜74%,^ii number of lysozyme per nanoassembly to be=(477.6×10^−21/24.4×10^−21)×(0.74)=14 The results for all other nanoassemblies are summarized below: […]
# [6] = Zeta potential measurement; format: physicochemical; settings: 1 mg/mL, phosphate buffer pH 7.4
# Description: as §1
Molecule,"Size, nm (hydrodynamic diameter, DLS) [1] [nm]",Order of overall kinetics of protein release [2],"Size, nm (hydrodynamic diameter, DLS) ([1]; listed as native CytC) [nm]",Cell viability (HeLa cells),"Crosslinking density, % [3] [%]","Loading capacity (LC), % [4] [%]","Amount of protein encapsulated, μg (Initial dose = 1 mg) [4] [µg]",# of Protein per PPC particle [5],"Zeta potential, mV [6] [mV]"
lysozyme,3.6 ± 0.4,CytC<RNaseA<Lys,,,,,,,
cytochrome C,4.3 ± 0.1,CytC<RNaseA<Lys,~4,lack of toxicity,,,,,
"ribonuclease A (protein, UniProt P61823 27-150, looked up, native protein from Sigma-Aldrich, model cargo) Ribonuclease pancreatic: KETAAAKFERQHMDSSTSAASSSNYCNQMMKSRNLTKDRCKPVNTFVHESLADVQAVCSQKNVACKNGQTNCYQSYSTMSITDCRETGSSKYPNCAYKTTQANKHIIVACEGNPYVPVHFDASV",3.3 ± 0.2,CytC<RNaseA<Lys,,,,,,,
"NA-RNaseA^ED: RNase A conjugated to polymer P1 and crosslinked with ethylenediamine; nanoassembly (conjugate, UniProt P61823 27-150, looked up, polymer P1 conjugate, ethylenediamine-crosslinked nanoassembly) Ribonuclease pancreatic: KETAAAKFERQHMDSSTSAASSSNYCNQMMKSRNLTKDRCKPVNTFVHESLADVQAVCSQKNVACKNGQTNCYQSYSTMSITDCRETGSSKYPNCAYKTTQANKHIIVACEGNPYVPVHFDASV",9.1 ± 0.1,,,,5.1,5.6,558,16,−8.2 ± 0.7
"NA-RNaseA^PEG: RNase A conjugated to polymer P1 and crosslinked with (PEO)4-bis-amine; nanoassembly (conjugate, UniProt P61823 27-150, looked up, polymer P1 conjugate, PEO4-bis-amine crosslinked nanoassembly, RNase A conjugated to polymer P1 and crosslinked with (PEO)4-bis-amine; nanoassembly) Ribonuclease pancreatic: KETAAAKFERQHMDSSTSAASSSNYCNQMMKSRNLTKDRCKPVNTFVHESLADVQAVCSQKNVACKNGQTNCYQSYSTMSITDCRETGSSKYPNCAYKTTQANKHIIVACEGNPYVPVHFDASV",9.5 ± 0.1,,,,5.1,5.5,553,18,−8.7 ± 0.7
